Measured values taken from EP2351583A1.

Target: AAB1/B2Fc
Assay: SPR (BIAcore), Fab immobilized on Pioneer F1 chip, AAB1/B2Fc as analyte

Kd: 0.332 nM
B1: Fab fragment F200 (Fab, V domains shown)
VH: QVQLKESGPGLVAPSQSLSITCTISGFSLTDYGVHWVRQPPGKGLEWLVVIWSDGSSTYNSALKSRMTIRKDNSKSQVFLIMNSLQTDDSAMYYCARHGTYYGMTTTGDALDYWGQGTSVTVSS
VL: QIVLTQSPAIMSASLGERVTMTCTASSSVSSNYLHWYQQKPGSAPNLWIYSTSNLASGVPARFSGSGSGTSYSLTISSMEAEDAATYYCHQYLRSPPTFGGGTKLEIKR
